Source: article PMC3407115, “Characterization of Danio rerio Mn^2+-Dependent ADP-Ribose/CDP-Alcohol Diphosphatase, the Structural Prototype of the ADPRibase-Mn-Like Protein Family” (PLoS ONE, 2012)

T1: rat ADPRibase-Mn (Rattus norvegicus, UniProt Q5M886)
T1 construct: gene Adprm
T1 sequence (Q5M886 1-337): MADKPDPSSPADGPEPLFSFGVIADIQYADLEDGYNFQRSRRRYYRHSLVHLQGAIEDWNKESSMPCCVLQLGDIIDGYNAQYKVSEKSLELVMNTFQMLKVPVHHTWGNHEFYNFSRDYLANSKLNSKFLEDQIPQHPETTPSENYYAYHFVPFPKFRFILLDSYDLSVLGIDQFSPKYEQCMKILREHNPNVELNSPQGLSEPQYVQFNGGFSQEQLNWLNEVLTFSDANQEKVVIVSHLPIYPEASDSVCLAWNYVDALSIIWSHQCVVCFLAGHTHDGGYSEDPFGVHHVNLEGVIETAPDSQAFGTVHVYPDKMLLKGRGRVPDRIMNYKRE


Key:
rat ADPRibase-Mn = target: T1, rat ADPRibase-Mn; experiment: hydrolysis assay; type: biochemical; conditions: behaves as with the zebrafish enzyme; no number given
[1] = substrate: C[N+](C)(C)CCOP(=O)(O)OP(=O)([O-])OC[C@H]1O[C@@H](n2ccc(N)nc2=O)[C@H](O)[C@@H]1O; experiment: phosphate release coupled to alkaline phosphatase; Michaelis-Menten fit; type: biochemical, Danio rerio; conditions: 5 mM MnCl2, 50 mM Tris-HCl pH 7.5
Description: (§1) phosphate release coupled to alkaline phosphatase; Michaelis-Menten fit on zebrafish ADPRibase-Mn

[2] = substrate: NCCOP(=O)(O)OP(=O)(O)OC[C@H]1O[C@@H](n2ccc(N)nc2=O)[C@H](O)[C@@H]1O; experiment: as above; type: biochemical, Danio rerio; conditions: 5 mM MnCl2, 50 mM Tris-HCl pH 7.5
Description: as §1

[3] = substrate: Nc1ccn([C@@H]2O[C@H](COP(=O)(O)OP(=O)(O)OC[C@H](O)CO)[C@@H](O)[C@H]2O)c(=O)n1; experiment: as above; type: biochemical, Danio rerio; conditions: 5 mM MnCl2, 50 mM Tris-HCl pH 7.5
Description: as §1

[4] = substrate: Nc1ncnc2c1ncn2[C@@H]1O[C@H](CO)[C@H]2OP(=O)(O)O[C@H]21; experiment: as above; type: biochemical, Danio rerio; conditions: 5 mM MnCl2, 50 mM Tris-HCl pH 7.5, total activity (P-O2′ plus P-O3′ hydrolysis)
Description: as §1

[5] = substrate: Nc1ncnc2c1ncn2[C@@H]1O[C@H](COP(=O)(O)OP(=O)(O)O)[C@@H](O)[C@H]1O; experiment: as above; type: biochemical, Danio rerio; conditions: 5 mM MnCl2, 50 mM Tris-HCl pH 7.5
Description: as §1

[6] = substrate: N=c1c2ncn3c2ncn1[C@@H]1O[C@H](COP(=O)(O)OP(=O)(O)OC[C@H]2O[C@@H]3[C@H](O)[C@@H]2O)[C@@H](O)[C@H]1O; experiment: estimated from inhibition of ADP-ribose hydrolysis by cADPR (equation II); type: biochemical, Danio rerio; conditions: competitive inhibition assumed, Ki taken as Km; 160 µM cADPR against 80 µM ADP-ribose
Description: estimated from inhibition of ADP-ribose hydrolysis by cADPR (equation II) on zebrafish ADPRibase-Mn

Row | Molecule | hydrolysis assay (rat ADPRibase-Mn) | Km [1] [mM] | kcat [1] [s⁻¹] | kcat/Km [1] [M⁻¹ s⁻¹] | Km [2] [mM] | kcat [2] [s⁻¹] | kcat/Km [2] [M⁻¹ s⁻¹] | Km [3] [mM] | kcat [3] [s⁻¹] | kcat/Km [3] [M⁻¹ s⁻¹] | Km [4] [mM] | kcat [4] [s⁻¹] | kcat/Km [4] [M⁻¹ s⁻¹] | Km [5] [mM] | kcat [5] [s⁻¹] | kcat/Km [5] [M⁻¹ s⁻¹] | Km [6] [mM] | kcat [6] [s⁻¹] | kcat/Km [6] [M⁻¹ s⁻¹]
1 | Nc1ncnc2c1ncn2[C@@H]1O[C@H](CO)[C@H]2OP(=O)(O)O[C@H]21 [2′,3′-cAMP] | we did it now and found them to behave as with the zebrafish enzyme | – | – | – | – | – | – | – | – | – | – | – | – | – | – | – | – | – | –
2 | zebrafish ADPRibase-Mn (Danio rerio; M1S) (protein, full-length ORF (BC054642 region 60-1028), N-terminal Met replaced by Ser; 8-His-MBP-TEV fusion expressed in E. coli BL21, tag cut with TEV protease) SEDPVFTFGLIADVQYADIEDGENYLRTRRRYYRGSADLLRDAVLQWRRERVQCVVQLGDIIDGHNRRRDASDRALDTVMAELDACSVDVHHVWGNHEFYNFSRPSLLSSRLNSAQRTGTDTGSDLIGDDIYAYEFSPAPNFRFVLLDAYDLSVIGREEESEKHTHSWRILTQHNHNLQDLNLPPVSVGLEQRFVKFNGGFSEQQLQWLDAVLTLSDHKQERVLIFSHLPVHPCAADPICLAWNHEAVLSVLRSHQSVLCFIAGHDHDGGRCTDSSGAQHITLEGVIETPPHSHAFATAYLYEDRMVMKGRGRVEDLTITYS | – | 12 ± 3 | 67.2 | 5600 ± 800 | 3.9 ± 1.3 | 125 | 32000 ± 300 | 2 ± 1.4 | 95.6 | 48000 ± 700 | 0.76 ± 0.05 | 16.9 | 22000 ± 3000 | 2.65 ± 1.3 | 1.8 | 660 ± 70 | 0.19 ± 0.025 | 0.005 | 28 ± 3
3 | zebrafish ADPRibase-Mn (Danio rerio; H97A/M1S) (protein, full-length ORF (BC054642 region 60-1028), N-terminal Met replaced by Ser; 8-His-MBP-TEV fusion expressed in E. coli BL21, tag cut with TEV protease) SEDPVFTFGLIADVQYADIEDGENYLRTRRRYYRGSADLLRDAVLQWRRERVQCVVQLGDIIDGHNRRRDASDRALDTVMAELDACSVDVHHVWGNAEFYNFSRPSLLSSRLNSAQRTGTDTGSDLIGDDIYAYEFSPAPNFRFVLLDAYDLSVIGREEESEKHTHSWRILTQHNHNLQDLNLPPVSVGLEQRFVKFNGGFSEQQLQWLDAVLTLSDHKQERVLIFSHLPVHPCAADPICLAWNHEAVLSVLRSHQSVLCFIAGHDHDGGRCTDSSGAQHITLEGVIETPPHSHAFATAYLYEDRMVMKGRGRVEDLTITYS | – | 43 ± 8 | 0.8 | 20 ± 5 | 31 ± 0.8 | 2.1 | 70 ± 20 | 6.3 ± 0.9 | 0.8 | 120 ± 30 | 1.7 ± 0.24 | 29.7 | 18000 ± 1000 | 19 ± 0.7 | 0.2 | 11 ± 5 | – | – | –
